Experimental data from the Human Domainome abundance scans (Beltran et al. 2025).

B1: Histone-lysine N-methyltransferase 2A, residues 1148 to 1194; numbered along this chain, Q03164 (parent)
chain: KGRRSRRCGQCPGCQVPEDCGVCTNCLDKPKFGGRNIKKQCCKMRKC

Variants of: B1
Assay: abundance fitness (aPCA) (normalised: wild type 0, dead -1); higher = more abundant; growth selection in yeast, the domain comes from the species named
Settings: Homo sapiens

Abundance fitness: each site, then its substitutions
R4: M 0.141 | F -0.15 | G 0.125 | D 0.045 | E 0.068 | Y -0.184 | K 0.186 | T 0.148 | I -0.074 | P -0.01 | L -0.06 | H -0.279 | W -0.54 | S -0.004 | V 0.103 | A -0.035
R7: N -0.041 | C -0.493 | Q -0.188 | F -0.192 | H -0.435 | Y -0.214 | D 0.159 | A -0.09 | T -0.153 | G -0.036 | I -0.17 | L -0.092 | S 0.019 | W -0.204 | V 0.075 | K -0.103 | P 0.294
R3: W -0.518 | Y -0.301 | I -0.281 | K 0.161 | N 0.017 | M 0.056 | H -0.403 | Q 0.023 | V 0.11
G9: W -0.553 | D -0.773 | I -0.452 | V -0.726 | H -0.39 | C -0.145 | L -0.562 | T -0.653 | Y -0.42 | M -0.256 | A -0.519 | F -0.469 | E -0.866 | Q -0.299 | R -0.55 | P -0.738
C11: V -0.371 | L -0.967 | W -0.674 | A -0.696 | G -0.643 | S -0.55 | P -0.693 | H -0.495 | R -0.81 | Q -0.915 | T -0.519 | E -0.799 | Y -0.827 | K -0.964 | I -0.913 | M -0.784 | F -0.719
R6: S 0.06 | L -0.014 | Y -0.207 | A 0.182 | C -0.407 | N 0.158 | V -0.204 | M -0.171 | G -0.088 | W -0.064 | I 0.019 | K -0.143 | E 0.138 | P 0.054 | H 0.089 | T -0.179 | D 0.143 | F 0.1
S5: T -0.24 | K -0.093 | I -0.604 | Q 0.07 | N -0.161 | L -0.132 | A -0.19 | R -0.226 | Y -0.459 | D -0.037 | C -0.644 | H -0.25 | E -0.091 | M -0.236 | G -0.169 | P -0.137 | F 0.163
G13: A -0.219 | E -0.353 | C -0.315 | D -0.313 | F -0.522
P12: Q 0.016 | L -0.106 | N -0.465 | I -0.31 | G -0.872 | E -0.439 | R -0.398 | W -0.723 | H -0.579 | S -0.676 | C -0.758 | M -0.081 | K -0.75 | T -0.5 | F -0.63 | Y -0.063 | V -0.712
Q10: S -0.069 | T -0.23 | R -0.234 | M -0.246 | L -0.322 | A 0.031 | D -0.589 | G -0.235 | C -0.459 | Y -0.69 | F -0.284 | I -0.02 | P -0.48 | W -0.381 | H -0.189 | V -0.296 | E -0.183 | N -0.436
C8: S -0.626 | W -0.863 | M -0.496 | Q -0.568 | P -0.613 | R -0.809 | E -0.506 | G -0.457 | L -0.648 | A -0.786 | I -0.585 | V -0.691 | D -0.442 | F -0.704 | T -0.7 | K -0.583 | Y -0.944
